Measured values published in paper PMC8844822, “SARM1 is a multi-functional NAD(P)ase with prominent base exchange activity, all regulated bymultiple physiologically relevant NAD metabolites” (iScience, 2022).

Test system: T1, NC(=O)c1ccc[n+]([C@@H]2O[C@H](COP(=O)([O-])OP(=O)(O)OC[C@H]3O[C@@H](n4cnc5c(N)ncnc54)[C@H](O)[C@@H]3O)[C@@H](O)[C@H]2O)c1
T1 construct: a soluble fragment Val43-Ile300 with 6x-His tag at C terminus; 6xHis (C); purchased R&D Systems
Experiment: NAD(P)ase activity by HPLC (kinetics, substrates, metal ions)
Format: biochemical, human
Conditions: other: hCD38, substrate as labelled, 25°C, pH 7.5
Experimental: hSARM1 species were routinely assayed by the NAD/NADH-Glo^TM Assay (Promega) while both Aplysia cyclase and CD38 were assayed by fluorometry using ϵNAD ([Orsomando et al., 2000]). […] Other reagents used in addition to, or in place of those above are detailed in text or in figure legends, for example metal ions, free bases, dinucleotide analogues, mononucleotides, and ribosides. Assays were all carried out at 25°C except for temperature studies. Reactions were stopped by HClO4/K2CO3 and analysed by C18-HPLC as reported ([Mori et al., 2014]). Only the acid labile NADH and NADPH were treated with 1 N NaOH and neutralized using 1:1 vol of 1.73 M KH2CO3 while the highly hydrophobic metabolites vacor, VAD, VMN and VR, were analysed by a modified C18-HPLC method ([Buonvicino et al., 2018]). Reaction products were quantified from peak areas (see Figure 2A) based on coelution with standards (except for cyclic products from NAD analogues that were not available and were attributed based on UV-spectra and retention times as predicted). Rates were calculated as follows. Hydrolysis and cyclization were measured from product generation from the respective individual dinucleotide substrate used, e.g., free and cyclic ADP-ribosyl moieties from NAD (Figure 1B). A basal value for hydrolysis/cyclization was taken as sum of these latter two products. […]

Substance: human CD38 (Homo sapiens)
- Km: 10.4 ± 2.90 µM
- Vmax: 6.65 µmol/min/mg
